Measured values taken from article PMC4135724 (Nature, 2014).

Target: the molecule itself
Assay: SEC

B1: Human E-Syt2 (residues 163-634), fragment comprising the SMP, C2A and C2B domains (domain or fragment, UniProt A0FGR8 191-662, looked up)
chain: DTERAEWLNKTVKHMWPFICQFIEKLFRETIEPAVRGANTHLSTFSFTKVDVGQQPLRINGVKVYTENVDKRQIILDLQISFVGNCEIDLEIKRYFCRAGVKSIQIHGTMRVILEPLIGDMPLVGALSIFFLRKPLLEINWTGLTNLLDVPGLNGLSDTIILDIISNYLVLPNRITVPLVSEVQIAQLRFPVPKGVLRIHFIEAQDLQGKDTYLKGLVKGKSDPYGIIRVGNQIFQSRVIKENLSPKWNEVYEALVYEHPGQELEIELFDEDPDKDDFLGSLMIDLIEVEKERLLDEWFTLDEVPKGKLHLRLEWLTLMPNASNLDKVLTDIKADKDQANDGLSSALLILYLDSARNLPSGKKISSNPNPVVQMSVGHKAQESKIRYKTNEPVWEENFTFFIHNPKRQDLEVEVRDEQHQCSLGNLKVPLSQLLTSEDMTVSQRFQLSNSGPNSTIKMKIALRVLHLEKRER
stoichiometry N: 2
